Data as given in article PMC4538832, “Structures of the T. brucei kRNA editing factor MRB1590 reveal unique RNA-binding pore motif contained within an ABC-ATPase fold” (Nucleic Acids Research, 2015).

Tested on: T1, MRB1590(10-668) (Trypanosoma brucei), UPI00067E648B
T1 sequence: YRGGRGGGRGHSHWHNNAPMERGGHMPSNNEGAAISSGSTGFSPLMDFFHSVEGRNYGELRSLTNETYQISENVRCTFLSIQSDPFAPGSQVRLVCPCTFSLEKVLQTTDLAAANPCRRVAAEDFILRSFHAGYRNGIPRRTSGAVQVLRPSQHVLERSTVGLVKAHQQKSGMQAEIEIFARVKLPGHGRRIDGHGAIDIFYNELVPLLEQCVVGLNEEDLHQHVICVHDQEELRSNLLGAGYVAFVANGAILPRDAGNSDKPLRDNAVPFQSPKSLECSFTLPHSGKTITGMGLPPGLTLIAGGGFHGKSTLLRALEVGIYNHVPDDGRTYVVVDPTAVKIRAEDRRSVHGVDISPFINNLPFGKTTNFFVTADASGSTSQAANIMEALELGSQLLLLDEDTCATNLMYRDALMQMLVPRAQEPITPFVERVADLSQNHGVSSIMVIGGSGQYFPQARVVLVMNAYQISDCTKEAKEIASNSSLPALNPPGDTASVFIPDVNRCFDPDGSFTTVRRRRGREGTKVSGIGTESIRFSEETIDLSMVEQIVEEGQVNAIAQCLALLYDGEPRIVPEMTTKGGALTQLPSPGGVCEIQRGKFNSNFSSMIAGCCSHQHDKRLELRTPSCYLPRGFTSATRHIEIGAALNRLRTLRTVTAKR
Test: fluorescence polarization
Conditions: FP: 20 mM Tris-HCl pH 7.5, 150 mM NaCl, 5% glycerol, 1 mM MgCl2, 2 mM ADP or AMP-PNP, 1 nM 3'-fluoresceinated RNA (heated to 99 C, slow cooled), 25 C

Substance | Kd
GC-rich RNA 14 mer | 236 nM
GC-rich RNA 16 mer | 8.2 nM
40 mer GC-rich A6 | 1.3 nM
GC-rich RNA 18 mer | 5.7 nM
GC-rich RNA 15 mer | 27.9 nM
